Experiment [1] has as its target T1, mouse MAdCAM expressed on cells (mouse, UniProt Q61826 22-405).
T1 construct: whole, on cells
T1 sequence (looked up): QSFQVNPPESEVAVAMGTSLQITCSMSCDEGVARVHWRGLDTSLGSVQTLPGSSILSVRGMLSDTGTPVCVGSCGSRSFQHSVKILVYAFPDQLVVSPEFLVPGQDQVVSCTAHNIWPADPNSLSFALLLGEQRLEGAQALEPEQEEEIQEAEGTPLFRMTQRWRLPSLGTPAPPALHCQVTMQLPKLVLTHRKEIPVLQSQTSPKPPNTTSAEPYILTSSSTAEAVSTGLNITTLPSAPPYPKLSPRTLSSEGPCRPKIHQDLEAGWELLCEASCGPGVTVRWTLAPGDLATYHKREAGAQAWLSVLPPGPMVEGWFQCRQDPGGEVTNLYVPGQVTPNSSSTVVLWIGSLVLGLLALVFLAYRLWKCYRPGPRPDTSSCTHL
Description: cell binding.

For experiment [2], the target named is T2, human MAdCAM expressed on cells (human, UniProt Q13477 19-382).
T2 construct: whole, on cells
T2 sequence (looked up): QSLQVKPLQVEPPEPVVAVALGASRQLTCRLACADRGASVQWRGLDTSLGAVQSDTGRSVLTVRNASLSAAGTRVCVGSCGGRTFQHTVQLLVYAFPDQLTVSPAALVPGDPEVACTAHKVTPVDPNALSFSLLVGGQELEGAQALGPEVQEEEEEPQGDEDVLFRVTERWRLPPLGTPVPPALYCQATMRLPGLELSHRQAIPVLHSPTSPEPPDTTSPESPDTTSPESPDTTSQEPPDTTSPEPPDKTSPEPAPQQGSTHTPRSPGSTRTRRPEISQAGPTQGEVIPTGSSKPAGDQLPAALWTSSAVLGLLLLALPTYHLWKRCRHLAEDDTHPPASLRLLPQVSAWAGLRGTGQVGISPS
Description: cell binding.

B1: MAdCAM antibody Table 1 clone 52 (scFv)
scFv: EVQLLESGGGLVQPGGSLRLSCAASGFTFSNSDMNWVRQAPGKGLEWVAHIWNDGSQKYYADSVKGRFTISRDNSKNTLYLQMNSLRAEDTAVYYCARDRTDPGYSSAMDVWGQGTTVTVSSGGGGSGGGGSGGGGSGGGGSDIQMTQSPSSLSASVGDRVTITCRASQDIRNYLGWYQQKPGKAPKLLIYDASSLETGVPSRFSGSGSGTDFTLTISSLQPEDFATYYCQQATSLPLTFGGGTKVEIK
With B1, the binding result is “no binding” in experiment [1] and “binds” in experiment [2].

B2: MAdCAM antibody Table 1 clone 54 (scFv)
scFv: EVQLLESGGGLVQPGGSLRLSCAASGFTFGDYAMSWVRQAPGKGLEWVAVVSYDGTNKYYADSVKGRFTISRDNSKNTLYLQMNSLRAEDTAVYYCAKDICSSTSCYFDLWGRGTLVTVSSGGGGSGGGGSGGGGSGGGGSDIQMTQSPSSLSASVGDRVTITCRASQNINNYVNWYQQKPGKAPKLLIYDASNLETGVPSRFSGSGSGTDFTLTISSLQPEDFATYYCQQANSFPPTFGQGTRLEIK
Turning to B2, the binding result was “no binding” in experiment [1] and “binds” in experiment [2].

B3: MAdCAM antibody Table 1 clone 50 (scFv)
scFv: QVQLVQSGAEVKKPGASVKVSCKASGYTFTSYDINWVRQAPGQGLEWMGWINPNSGTTGYAQKFQGRVTMTRDTSTSTVYMELSSLRSEDTAVYYCARSPYYYYGMDVWGQGTTVTVSSGGGGSGGGGSGGGGSGGGGSDIQMTQSPSSLSASVGDRVTITCRASHFISRWVAWYQQKPGKAPKLLIYAASTLQSGVPSRFSGSGSGTDFTLTISSLQPEDFATYYCQQSYSGISFGPGTKVDIK
As for B3, the binding result was “no binding” in experiment [1] and “binds” in experiment [2].

B4: MAdCAM antibody Table 1 clone 49 (scFv)
scFv: QVQLVQSGAEVKKPGASVKVSCKASGDTFTGYYIHWVRQAPGQGLEWMGWINPNSGGTNYAQKFQGRVTMTRDTSTSTVYMELSSLRSEDTAVYYCARSGLWLGSYYGMDVWGQGTLVTVSSGGGGSGGGGSGGGGSGGGGSDIQMTQSPSSLSASVGDRVTITCRASQTISIWLAWYQQKPGKAPKLLIYDASTLQSGVPSRFSGSGSGTDFTLTISSLQPEDFATYYCQQYSSYPLTFGQGTKVEIK
On to B4, for which the binding result in experiment [1] is “no binding”; in experiment [2], “binds”.

B5: MAdCAM antibody Table 1 clone 57 (scFv)
scFv: QVQLVQSGAEVKKPGASVKVSCKASGYTFTSYYMHWVRQAPGQGLEWMGIINPSGGSTSYAQKFQGRVTMTRDTSTSTVYMELSSLRSEDTAVYYCARDSVAGTGGRYYGMDVWGQGTLVTVSSGGGGSGGGGSGGGGSGGGGSDIQMTQSPSSLSASVGDRVTITCRASQGISNYFAWYQQKPGKAPKLLIYAASSLQGGVPSRFSGSGSGTDFTLTISSLQPEDFATYYCQQSYSLPYTFGQGTKLEIK
For B5, the binding result in experiment [1] is “no binding”; in experiment [2] it was “binds”.

B6: MAdCAM antibody Table 1 clone 12 (scFv)
scFv: QVQLVQSGAEVKKPGASVKVSCKASGYTFTGYYMHWVRQAPGQGLEWMGWIGPNSGDTNYAQKFQGRVTMTRDTSTSTVYMELSSLRSEDTAVYYCARDLDHNWYFDLWGRGTLVTVSSGGGGSGGGGSGGGGSGGGGSDIVMTQSPLSLPVTPGEPASISCRSSQSLLHSNGYNYLDWYLQKPGQSPQLLIYSSSNRAPGVPDRFSGSGSGTDFTLKISRVEAEDVGVYYCMQALHIPLTFGGGTKVEIK
Take B6: the binding result in experiment [1] is reported as “no binding”; in experiment [2], “binds”.

B7: MAdCAM antibody Table 1 clone 53 (scFv)
scFv: QVQLVQSGAEVKKPGASVKVSCKASGYTFTSYDINWVRQAPGQGLEWMGWMNPNSGNTGYAQKFQGRVTMTRDTSTSTVYMELSSLRSEDTAVYYCAKDSDYSNLLWDYWGQGTLVTVSSGGGGSGGGGSGGGGSGGGGSDIQMTQSPSSLSASVGDRVTITCRASQDITNDLGWYQQKPGKAPKLLIYQASSLESGVPSRFSGSGSGTDFTLTISSLQPEDFATYYCQQSYTIPLTFGQGTKVEIK
For B7, the binding result in experiment [1] is given as “no binding”; in experiment [2], “binds”.

B8: MAdCAM antibody Table 1 clone 51 (scFv)
scFv: EVQLLESGGGLVQPGGSLRLSCAASGFTFNNYGMNWVRQAPGKGLEWVSRINSDGSSTSYADSVKGRFTISRDNSKNTLYLQMNSLRAEDTAVYYCARGAYYYYYMDVWGQGTLVTVSSGGGGSGGGGSGGGGSGGGGSEIVMTQSPATLSVSPGERATLSCRASQSVSGSYLAWYQQKPGQAPRLLIYATSSRASGIPARFSGSGSGTEFTLTISSLQSEDFAVYYCQQYYSGLTFGQGTKVEIK
Take B8: the binding result was “no binding” in experiment [1] and “binds” in experiment [2].

B9: MAdCAM antibody Table 1 clone 55 (scFv)
scFv: QVQLVQSGAEVKKPGASVKVSCKASGYTFTSYYMHWVRQAPGQGLEWMGIIDPSGGSTSYAQKFQGRVTMTRDTSTSTVYMELSSLRSEDTAVYYCAREEWSSGGVGYFDYWGQGTLVTVSSGGGGSGGGGSGGGGSGGGGSDIQMTQSPSSLSASVGDRVTITCRASQGISSYLAWYQQKPGKAPKLLIYATSSLQTGVPSRFSGSGSGTDFTLTISSLQPEDFATYYCQQTYSIPITFGQGTRLEIK
Turning to B9, the binding result is reported as “no binding” in experiment [1] and “binds” in experiment [2].

B10: MAdCAM antibody Table 1 clone 14 (scFv)
scFv: QVQLVQSGAEVKKPGSSVKVSCKASGYTFTDYHIHWVRQAPGQGLEWMGGIVPRSGSTTYAQKFQGRVTITADESTSTAYMELSSLRSEDTAVYYCAKDESSGWYYFDYWGQGTLVTVSSGGGGSGGGGSGGGGSGGGGSDIVMTQSPLSLPVTPGEPASISCRSSQSLLHSNGYNYLDWYLQKPGQSPQLLIYSAYNRASGVPDRFSGSGSGTDFTLKISRVEAEDVGVYYCMQALQTPLTFGQGTKVEIK
On to B10, for which the binding result in experiment [1] is on record as “no binding”; in experiment [2], “binds”.

B11: MAdCAM antibody Table 1 clone 13 (scFv)
scFv: EVQLLESGGGLVQPGGSLRLSCAASGFTFDDYAMHWVRQAPGKGLEWVSYIDASGTTIYYADSVKGRFTISRDNSKNTLYLQMNSLRAEDTAVYYCAKDQAAAGYWYFDLWGRGTLVTVSSGGGGSGGGGSGGGGSGGGGSDIQMTQSPSSLSASVGDRVTITCQASQDISNYLNWYQQKPGKAPKLLIYKASTLESGVPSRFSGSGSGTDFTLTISSLQPEDFATYYCQQSYSTPITFGQGTRLEIK
On to B11, for which the binding result in experiment [1] is “no binding”; in experiment [2], “binds”.

B12: MAdCAM antibody Table 1 clone 11 (scFv)
scFv: QVQLVQSGAEVKKPGASVKVSCKASGYTFTTYYMHWVRQAPGQGLEWMGGFDPEDGETIYAQKFQGRVTMTRDTSTSTVYMELSSLRSEDTAVYYCARHAVAGAVGAGYYYYGMDVWGQGTMVTVSSGGGGSGGGGSGGGGSGGGGSDIQMTQSPSSLSASVGDRVTITCRASESISNWLAWYQQKPGKAPKLLIYAASTLQSGVPSRFSGSGSGTDFTLTISSLQPEDFATYYCQQSYSVPFTFGPGTKVDIK
For B12, the binding result was “no binding” in experiment [1] and “binds” in experiment [2].

B13: MAdCAM antibody Table 1 clone 3 (scFv)
scFv: QVQLVQSGAEVKKPGASVKVSCKASGYPFIGQYLHWVRQAPGQGLEWMGIINPSGGSTSYAQKFQGRVTMTRDTSTSTVYMELSSLRSEDTAVYYCAREGRLSYGMDAWGQGTLVTVSSGGGGSGGGGSGGGGSGGGGSDIQMTQSPSSLSASVGDRVTITCRASQSISSYLAWYQQKPGKAPKLLIYGASTLESGVPSRFSGSGSGTDFTLTISSLQPEDFATYYCQQTWGPPFTFGQGTKLEIK
On to B13, for which the binding result in experiment [1] and in experiment [2] was “binds” throughout.

B14: MAdCAM antibody Table 1 clone 48 (scFv)
scFv: EVQLLESGGGLVQPGGSLRLSCAASGFTFSDHGMHWVRQAPGKGLEWVSVIYGGESTYYADSVKGRFTISRDNSKNTLYLQMNSLRAEDTAVYYCARDPAVAGGGIFDYWGQGTLVTVSSGGGGSGGGGSGGGGSGGGGSDIQMTQSPSSLSASVGDRVTITCRASQGISNYLAWYQQKPGKAPKLLIYDASNLETGVPSRFSGSGSGTDFTLTISSLQPEDFATYYCQQSYSTCYTFGQGTKLEIK
Take B14: the values for the binding result in experiment [1] and in experiment [2] were “no binding” and “binds”, respectively.

B15: MAdCAM antibody Table 1 clone 15 (scFv)
scFv: QVQLVQSGAEVKKPGSSVKVSCKASGYTFTNYYMHWVRQAPGQGLEWMGGIIPIVDRVKYAQKFQGRVTITADESTSTAYMELSSLRSEDTAVYYCAKGRYTVNYYYGMDVWGQGTTVTVSSGGGGSGGGGSGGGGSGGGGSDIQMTQSPSSLSASVGDRVTITCQANQDISNYLNWYQQKPGKAPKLLIYRASKLEAGVPSRFSGSGSGTDFTLTISSLQPEDFATYYCQQSSEIPYSFGQGTKLEIK
B15: the binding result was “no binding” in experiment [1] and “binds” in experiment [2].

B16: MAdCAM antibody Table 1 clone 58 (scFv)
scFv: QVQLVQSGAEVKKPGASVKVSCKASGYTFTGYYMHWVRQAPGQGLEWMGIINPSGGNTKYAQKFQGRVTMTRDTSTSTVYMELSSLRSEDTAVYYCTTADYYYYMDVWGKGTTVTVSSGGGGSGGGGSGGGGSGGGGSDIQMTQSPSSLSASVGDRVTITCRASQGISNYLAWYQQKPGKAPKLLIYAASSLQSGVPSRFSGSGSGTDFTLTISSLQPEDFATYYCQQYYSNADFGQGTKVEIK
As to B16, the figures for the binding result in experiment [1] and in experiment [2] were “no binding” and “binds”, respectively.

(Values after US20230235004A1 (published 2023).)
